Reference: publication PMC2921665
Substitutions are numbered along the chain they refer to. Read-outs that look alike come from different tables or passages of the source.

What was measured:
LexA (EMSA protein) [1] = target: T1, LexA (EMSA protein) (Escherichia coli, UniProt P0A7C2 1-202, K156A); test: EMSA
LexA (EMSA protein) [2] = target: T1, LexA (EMSA protein); test: EMSA; remark: listed apart in the source

B1: +1 spacer (dsDNA)
DNA 1: GATGCCTGCGGATACTGTATATATAATACAGTATCAATTCTGGCT
DNA 2: AGCCAGAATTGATACTGTATTATATATACAGTATCCGCAGGCATC
Question: With B1 as the binder, how does the Kd (LexA (EMSA protein) [1]) read?
Answer: The Kd was roughly 200 nM.

B2: RecA SOS box (dsDNA)
DNA 1: GATGCCTGCGGATACTGTATGATCATACAGTATCAATTCTGGCT
DNA 2: AGCCAGAATTGATACTGTATGATCATACAGTATCCGCAGGCATC
Question: Which Kd (LexA (EMSA protein) [2]) does the source give for B2 here?
Answer: The Kd was 1.67 ± 0.26 nM.

B3: AT-GC spacer (dsDNA)
DNA 1: B2 DNA 1 with A22C, T23G
DNA 2: B2 DNA 2 with A22C, T23G
Question: How did the Kd (LexA (EMSA protein) [2]) turn out when B3 was run?
Answer: Its Kd is 1.59 ± 0.3 nM.

B4: AT-repeat spacer (dsDNA)
DNA 1: B2 DNA 1 with G21A, A22T, T23A, C24T
DNA 2: B2 DNA 2 with G21A, A22T, T23A, C24T
Question: How did the Kd (LexA (EMSA protein) [2]) turn out when B4 was run?
Answer: The Kd was 0.8 ± 0.27 nM.

B5: A-tract spacer (dsDNA)
DNA 1: B2 DNA 1 with T20A, G21A, T23A, C24A, T26A
DNA 2: B2 DNA 2 with A19T, G21T, A22T, C24T, A25T
Question: With B5 as the binder, how does the Kd (LexA (EMSA protein) [2]) read?
Answer: The Kd was 5.64 ± 0.78 nM.

B6: TGC spacer (dsDNA)
DNA 1: B2 DNA 1 with T20C, A22C, T23G, A25G
DNA 2: B2 DNA 2 with T20C, A22C, T23G, A25G
Question: Which Kd (LexA (EMSA protein) [2]) does the source give for B6 here?
Answer: Its Kd is 2.4 ± 0.5 nM.

B7: -1 spacer (dsDNA)
DNA 1: GATGCCTGCGGATACTGTATATATTACAGTATCAATTCTGGCT
DNA 2: AGCCAGAATTGATACTGTAATATATACAGTATCCGCAGGCATC
Question: For B7, which Kd (LexA (EMSA protein) [1]) is on record?
Answer: Its Kd is roughly 250 nM.

B8: GC-repeat spacer (dsDNA)
DNA 1: GATGCCTGCGGATACTGTGCGCGCGCACAGTATCAATTCTGGCT
DNA 2: AGCCAGAATTGATACTGTGCGCGCGCACAGTATCCGCAGGCATC
Question: With B8 as the binder, how does the Kd (LexA (EMSA protein) [1]) read?
Answer: The Kd was roughly 100 nM.
